Assay results published in PMC4263517.

Target: Hfq (Pseudomonas aeruginosa (PAO1?)) (UniProt Q9HUM0)
Assay: EMSA
Conditions: biotinylated UTP 1:3 to unlabeled UTP; 50 mM Tris-HCl pH 7.5, 250 mM NaCl, 250 mM KCl (Hfq annealing buffer); RNA renatured 80 C 1 min; room temperature 20 min; 7.5% TGX native gel

Hfq (Pseudomonas aeruginosa (PAO1?)), sequence (Q9HUM0 whole entry): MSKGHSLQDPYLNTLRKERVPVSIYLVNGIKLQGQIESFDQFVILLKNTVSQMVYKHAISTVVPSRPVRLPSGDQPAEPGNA

AACUGGUCGCGAGAUCAGCCGGUAAGCUGAGAGACCCACGCAGUCGGACUCUUCAGAUUAUCUCCUCAUCAGGCUAAUCACGGUUUUUGACCCGGCACUUUGCCGGGUCUUUUUUUGCCUGCGAUUCGGCCGGAGACGACCGUUCAUCGGCUGGCGAUGGAAUGAAUGAGAACCGGCUUGACCUGAUAAUGAGAAUAGUUAUUAUUACACCAACUGGUCGCGAGGCCAGCAGGUAAGCUGAGAGACCAAGCAGUCGGACUCUUCAGAUUAUCUCCUCAUCAGGCUAAUCACGGUUUCGACCCGGCACUUUGCCGGGUCUUUUUUU [PrrH sRNA]
binding: 11 ng/µL
